Source: US20060281899A1, “Mutants of biotin binding protein” (priority 2002, published 2006)

Experiments:
[1] = test system: biotinylated alkaline phosphatase; assay: Microtiter plate assay, biotin-binding activity after heat treatment at 99.9° C.; format: physicochemical; conditions: 99.9° C. for various time periods
Procedure: Reversibility of biotin binding was measured for avidin and the mutants with an IAsys optical biosensor (Laitinen, O. H. et al., FEBS Lett 461 (1999), 52-8). Protein samples were allowed to bind to a biotin-aminosilane cuvette in PBS containing 1 M NaCl. After the equilibrium was reached, biotin-containing buffer was added and the dissociation of the proteins was monitored. The affinities of the proteins towards 2-iminobiotin were determined with an IAsys optical biosensor (Marttila, A. T. et al. FEBS Lett 441 (1998), 313-7). Biotin-binding activity of the mutants Avd-ci and Avd-ccci after heat treatment was studied with a microtiter plate assay. Protein samples, 5 μg/ml concentration in PBS, were heated for various time periods at 99.9° C. and then chilled on ice. The samples were transferred to a Nunc Maxisorp-plate and incubated at 37° C. for 2 h. The wells were washed three times with PBS-Tween (0.05% v/v). […] The absorbances at 405 nm were measured after incubation for 45 minutes.
Biotin-binding activity of the proteins after heat treatment was studied with a microtiter plate assay (Nordlund, H. R., Laitinen, O. H., Uotila, S. T., Nyholm, T., Hytönen, V. P., Slotte, J. P. & Kulomaa, M. S. (2003) J. Biol. Chem. 278, 2479-2483). […] The absorbencies at 405 nm were measured after incubation for 45 minutes.

[2] = Microparticle analysis, BF523-biotin binding of protein-coated particles before and after 95° C.; format: physicochemical
Procedure: Before the analysis, 3.22 μm microparticles with COOH-group/0.852 nm2 (Bangs laboratories, Fishers, Ind., USA) were covalently coated with biotin-binding proteins. Microparticles (1*108 pcs) were washed twice with H20 by sequential centrifuging (5000 g; 3 min) and aspiration, and resuspended in 200 μl PB buffer (50 mM NaH2PO4-HCl, pH 3.0). A solution of biotin binding protein (50 μl, 1 mg/ml or 3 mg/ml, 50 mM Na-acetate pH 4.0) was added while vortexing. The suspension was incubated for 1 h (500 rpm; 23° C.). Particles were washed with PB and with MES buffer (50 mM, pH 5.5) and suspended in MES buffer (200 μl). […] After the last wash particles were suspended in 100 μl volume and concentration of particles was determined with Multisizer 3 Coulter Counter (Beckman Coulter, Fullerton, Calif., USA). […]
Microparticles (5*106 pcs) were suspended in 900 μl of assay buffer and aliquoted in […] PCR-tubes (i-v; 180 μl/aliquot). […] The samples were measured with ArcDia TPX PlateReader (ArcDia Ltd.) (Soini, E., Meltola, N. J., Soini, A. E., Soukka, J., Soini, J. T. & Hanninen, P. E. (2000) Biochem. Soc. Trans. 28, 70-74). […]
The fluorescence emission efficiencies of the BF523-biotin conjugate (200 nM) was determined before and after the incubation (30 min) at 95° C. […]

- capacity of coated particles ([2]; BF523-biotin binding, no heat treatment (i, iii)): remarkably higher
B1: AVR4/5: Recombinant chicken avidin-related protein 4/5 (AVR4 and AVR5 identical in coding sequence) (protein, UniProt P56734 25-150, looked up)
Avidin-related protein 4/5: ARKCSLTGKWTNNLGSIMTIRAVNSRGEFTGTYLTAVADNPGNITLSPLLGIQHKRASQPTFGFTVHWNFSESTTVFTGQCFIDRNGKEVLKTMWLLRSSVNDISYDWKATRVGYNNFTRLCTVEE
- biotin-binding activity after heat treatment [1]: superior stability against boiling
- original signal after heat treatment of coated particles ([2]; 30 minutes at 95° C., BF523-biotin added after treatment (iv)): 93%
